Results from patent US20030068675, “Position dependent recognition of GNN nucleotide triplets by zinc fingers” (published 2003).
Positions count from the first letter of the chain named.

Columns and labels:
Assay in all cases: EMSA
Details in all cases: tags: MBP fusion
ZFP SBS#624 = target: T1, ZFP SBS#624 (synthetic)
T1 chain: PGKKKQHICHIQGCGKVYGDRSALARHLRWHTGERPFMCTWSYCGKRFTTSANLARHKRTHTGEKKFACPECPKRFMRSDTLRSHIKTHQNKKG
Method in brief: (§1)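 Purified ZFP was titrated against labeled double-stranded target (1 nM or lower, at least 10-fold below expected Kd) carrying the natural binding site with flanks. Binding buffer was 10 mM Tris pH 7.5, 100 mM KCl, 1 mM MgCl2, 0.1 mM ZnCl2, 5 mM DTT, 10% glycerol, 0.02% BSA, with equilibration for at least 45 min. Bound and free target were separated on a 10% polyacrylamide gel.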

ZFP SBS#651 = ZFP SBS#651 (synthetic)
Method in brief: as §1

ZFP SBS#611 = ZFP SBS#611 (synthetic)
Method in brief: as §1

ZFP SBS#612 = target: T2, ZFP SBS#612 (synthetic)
T2 chain: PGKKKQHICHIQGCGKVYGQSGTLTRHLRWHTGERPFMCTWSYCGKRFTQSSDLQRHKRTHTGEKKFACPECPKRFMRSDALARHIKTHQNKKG
Method in brief: as §1

ZFP SBS#665 = target: T3, ZFP SBS#665 (synthetic)
T3 chain: T2 chain with Q20R, G22D, T23D, L24V, Q50R, S52D, D53N, Q55T, A81D, A83R
Method in brief: as §1

ZFP SBS#666 = target: T4, ZFP SBS#666 (synthetic)
T4 chain: T1 chain with D20R, R21S, S22D, A23D, A25T, T50R, A52D, A55T, R83K, S84K
Method in brief: as §1

ZFP SBS#660 = target: T5, ZFP SBS#660 (synthetic)
T5 chain: T2 chain with Q20N, S21R, G22A, T25A, S52G, D53H, Q55T, A81N
Method in brief: as §1

ZFP SBS#661 = ZFP SBS#661 (synthetic)
Method in brief: as §1

ZFP SBS#619 = target: T6, ZFP SBS#619 (synthetic)
T6 chain: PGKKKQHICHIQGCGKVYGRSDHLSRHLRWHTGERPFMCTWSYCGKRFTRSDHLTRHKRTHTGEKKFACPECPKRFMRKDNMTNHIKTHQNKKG
Method in brief: as §1

ZFP SBS#621 = target: T7, ZFP SBS#621 (synthetic)
T7 chain: T6 chain with K79L, M82R, N84Q
Method in brief: as §1

ZFP SBS#617 = target: T8, ZFP SBS#617 (synthetic)
T8 chain: T6 chain with N84A
Method in brief: as §1

ZFP SBS#620 = ZFP SBS#620 (synthetic)
Method in brief: as §1

ZFP SBS#618 = target: T9, ZFP SBS#618 (synthetic)
T9 chain: T6 chain with N84Q
Method in brief: as §1

ZFP SBS#652 = ZFP SBS#652 (synthetic)
Method in brief: as §1

ZFP SBS#653 = target: T10, ZFP SBS#653 (synthetic, UniProt P08047)
T10 chain: T1 chain with D20T, R21T, A23D, A25T, T50R, A52D, T81N, R83T, S84T
Method in brief: as §1

ZFP SBS#616 = ZFP SBS#616 (synthetic)
Method in brief: as §1

ZFP SBS#646 = target: T11, ZFP SBS#646 (synthetic)
T11 chain: T2 chain with T23N, T25A, Q50R, S52D, D53A, Q55A, S79G, A83T, R84S
Method in brief: as §1

ZFP SBS#647 = target: T12, ZFP SBS#647 (synthetic)
T12 chain: T1 chain with D20Q, R21S, S22A, A23N, T50R, A52D, N53A, S79G, T81A, R83T
Method in brief: as §1

ZFP SBS#630 = ZFP SBS#630 (synthetic)
Method in brief: as §1

ZFP SBS#654 = ZFP SBS#654 (synthetic)
Method in brief: as §1

ZFP SBS#656 = ZFP SBS#656 (synthetic)
Method in brief: as §1

ZFP SBS#657 = target: T13, ZFP SBS#657 (synthetic)
T13 chain: T2 chain with T23N, T25R, R26T, D53T, Q55R, A81N, A83T, R84S
Method in brief: as §1

ZFP SBS#608 = target: T14, ZFP SBS#608 (synthetic)
T14 chain: T2 chain with Q20G, G22W, T23H, A81S, A83T, R84K
Method in brief: as §1

ZFP SBS#614 = ZFP SBS#614 (synthetic)
Method in brief: as §1

ZFP SBS#613 = ZFP SBS#613 (synthetic)
Method in brief: as §1

ZFP SBS#370 = target: T15, ZFP SBS#370 (synthetic)
T15 chain: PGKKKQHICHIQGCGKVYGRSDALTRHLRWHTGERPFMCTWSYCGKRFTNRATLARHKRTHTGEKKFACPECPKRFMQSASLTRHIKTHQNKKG
Method in brief: as §1

ZFP SBS#371 = target: T16, ZFP SBS#371 (synthetic)
T16 chain: T15 chain with A80G
Method in brief: as §1

ZFP SBS#372 = target: T17, ZFP SBS#372 (synthetic)
T17 chain: T15 chain with A23S, T25L, N50T, R51G, A52G, T53S
Method in brief: as §1

ZFP SBS#401 = target: T18, ZFP SBS#401 (synthetic)
T18 chain: T15 chain with N50T, R51G, A52G, T53S
Method in brief: as §1

ZFP SBS#569 = target: T19, ZFP SBS#569 (synthetic)
T19 chain: T15 chain with A23S, T25L, N50T, R51G, A52G, T53S, S79R, A80S, S81A
Method in brief: as §1

ZFP SBS#422 = target: T20, ZFP SBS#422 (synthetic)
T20 chain: T15 chain with A23S, T25L, N50T, R51G, A52G, T53S, A55T, A80G
Method in brief: as §1

ZFP SBS#369 = target: T21, ZFP SBS#369 (synthetic)
T21 chain: T15 chain with N50T, R51G, A52G, T53S, A80G
Method in brief: as §1

ZFP SBS#403 = target: T22, ZFP SBS#403 (synthetic)
T22 chain: T15 chain with A23S, T25L, A80G
Method in brief: as §1

ZFP SBS#373 = target: T23, ZFP SBS#373 (synthetic)
T23 chain: T15 chain with A23S, T25L
Method in brief: as §1

ZFP SBS#421 = target: T24, ZFP SBS#421 (synthetic)
T24 chain: T15 chain with R20D, A23S, T25L, N50T, R51G, A52G, T53S, A80G
Method in brief: as §1

ZFP SBS#628 = target: T25, ZFP SBS#628 (synthetic)
T25 chain: T6 chain with S25T, H53N, R56T, K79G, N81A, M82L, N84S
Method in brief: as §1

ZFP SBS#629 = target: T26, ZFP SBS#629 (synthetic)
T26 chain: T6 chain with D22S, S25T, H53N, R56T, K79G, N81A, M82L, N84S
Method in brief: as §1

ZFP SBS#661 (synthetic), sequence (chain, as listed by the source): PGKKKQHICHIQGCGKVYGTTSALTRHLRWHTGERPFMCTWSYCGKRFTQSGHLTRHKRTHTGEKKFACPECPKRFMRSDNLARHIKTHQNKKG
ZFP SBS#613 (synthetic), sequence (chain, as listed by the source): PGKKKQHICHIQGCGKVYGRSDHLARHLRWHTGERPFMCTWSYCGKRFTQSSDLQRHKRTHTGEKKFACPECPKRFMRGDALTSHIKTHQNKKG
ZFP SBS#652 (synthetic), sequence (chain, as listed by the source): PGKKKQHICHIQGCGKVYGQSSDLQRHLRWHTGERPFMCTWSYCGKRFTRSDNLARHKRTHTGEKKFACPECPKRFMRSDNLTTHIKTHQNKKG
ZFP SBS#651 (synthetic), sequence (chain, as listed by the source): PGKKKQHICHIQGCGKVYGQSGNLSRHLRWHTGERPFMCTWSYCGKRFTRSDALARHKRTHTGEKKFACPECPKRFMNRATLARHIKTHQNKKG
ZFP SBS#620 (synthetic), sequence (chain, as listed by the source): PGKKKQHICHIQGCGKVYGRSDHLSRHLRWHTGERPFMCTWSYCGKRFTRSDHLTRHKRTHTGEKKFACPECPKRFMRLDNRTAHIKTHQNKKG
ZFP SBS#614 (synthetic), sequence (chain, as listed by the source): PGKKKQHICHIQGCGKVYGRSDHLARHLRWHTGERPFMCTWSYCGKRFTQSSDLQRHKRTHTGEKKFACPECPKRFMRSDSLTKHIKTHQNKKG
ZFP SBS#656 (synthetic), sequence (chain, as listed by the source): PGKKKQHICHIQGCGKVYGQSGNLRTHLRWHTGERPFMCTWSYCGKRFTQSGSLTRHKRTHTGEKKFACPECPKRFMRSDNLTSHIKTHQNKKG

B1: ACGGATGTCT (dsDNA)
DNA 1: ACGGATGTCT
DNA 2: AGACATCCGT
ZFP SBS#624
  Kd: 7 nM

B2: GTTGTGGAAT (dsDNA)
DNA 1: GTTGTGGAAT
DNA 2: ATTCCACAAC
ZFP SBS#651
  Kd: 67.5 nM

B3: GTGGCTGCAG (dsDNA)
DNA 1: GTGGCTGCAG
DNA 2: CTGCAGCCAC
ZFP SBS#611
  Kd: 11.5 nM
ZFP SBS#612
  Kd: 0.38 nM

B4: GCGGAGGCGC (dsDNA)
DNA 1: GCGGAGGCGC
DNA 2: GCGCCTCCGC
ZFP SBS#665
  Kd: 12.5 nM
ZFP SBS#666
  Kd: 0.5 nM

B5: GAGGGAGTTC (dsDNA)
DNA 1: GAGGGAGTTC
DNA 2: GAACTCCCTC
ZFP SBS#660
  Kd: 8.25 nM
ZFP SBS#661
  Kd: 1.73 nM

B6: AAGGGGGGG (dsDNA)
DNA 1: AAGGGGGGG
DNA 2: CCCCCCCTT
ZFP SBS#619
  Kd: 1.34 nM
ZFP SBS#621
  Kd: 0.75 nM
ZFP SBS#617
  Kd: 1 nM
ZFP SBS#620
  Kd: 0.54 nM
ZFP SBS#618
  Kd: 0.55 nM

B7: TAGGAGGCTG (dsDNA)
DNA 1: TAGGAGGCTG
DNA 2: CAGCCTCCTA
ZFP SBS#652
  Kd: 1.5 nM
ZFP SBS#653
  Kd: 5.5 nM

B8: GAGGAGGATG (dsDNA)
DNA 1: GAGGAGGATG
DNA 2: CATCCTCCTC
ZFP SBS#616
  Kd: 0.08 nM

B9: TTGGTGGAAG (dsDNA)
DNA 1: TTGGTGGAAG
DNA 2: CTTCCACCAA
ZFP SBS#646
  Kd: 35 nM
ZFP SBS#647
  Kd: 40 nM

B10: CGGGGAGAGT (dsDNA)
DNA 1: CGGGGAGAGT
DNA 2: ACTCTCCCCG
ZFP SBS#630
  Kd: 37.5 nM

B11: TAGGCATAAA (dsDNA)
DNA 1: TAGGCATAAA
DNA 2: TTTATGCCTA
ZFP SBS#654
  Kd: 105 nM
ZFP SBS#656
  Kd: 540 nM
ZFP SBS#657
  Kd: 300 nM

B12: TTGGCTGGGC (dsDNA)
DNA 1: TTGGCTGGGC
DNA 2: GCCCAGCCAA
ZFP SBS#608
  Kd: 8 nM
ZFP SBS#614
  Kd: 2 nM
ZFP SBS#613
  Kd: 1.45 nM

B13: GTAGTTGTG (dsDNA)
DNA 1: GTAGTTGTG
DNA 2: CACAACTAC
ZFP SBS#370
  Kd: 300 nM
ZFP SBS#371
  Kd: 175 nM
ZFP SBS#372
  Kd: 112 nM
ZFP SBS#401
  Kd: 80 nM
ZFP SBS#569
  Kd: 52 nM
ZFP SBS#422
  Kd: 200 nM
ZFP SBS#369
  Kd: 95 nM
ZFP SBS#403
  Kd: 750 nM
ZFP SBS#373
  Kd: 320 nM
ZFP SBS#421
  Kd: 500 nM

B14: TTGTAGGGGA (dsDNA)
DNA 1: TTGTAGGGGA
DNA 2: TCCCCTACAA
ZFP SBS#628
  Kd: 130 nM
ZFP SBS#629
  Kd: 150 nM
